The target in data set [1] is murine FasL of anti-CD3-stimulated mouse T cell hybridoma cells (LTT cells) (mouse) (UniProt P41047).
The target is the same in data set [2]. This is another data set of the same source.
For data set [3], the target named is hFasLigand (Flag-tagged) (human) (UniProt P48023). The data set can be described thus: competition ELISA: mrecFas 100 ng adsorbed, hFasLigand-Flag 30 ng, FLINT 100 ng; signal is FasL bound to Fas. In general terms: In an ELISA, binding on a coated surface is turned into a signal by an enzyme label.
The target is the same in data set [4]. The data set can be described thus: competition ELISA: mrecFas 100 ng adsorbed, hFasLigand-Flag 30 ng, FLINT 50 ng; signal is FasL bound to Fas.
The target is the same in data set [5]. The data set can be described thus: competition ELISA: mrecFas 100 ng adsorbed, hFasLigand-Flag 30 ng, FLINT 500 ng; signal is FasL bound to Fas.
Data set [6] has the same target. The data set can be described thus: competition ELISA: mrecFas 100 ng adsorbed, hFasLigand-Flag 30 ng, FLINT 1 ng; signal is FasL bound to Fas.
The target in data set [7] is FasL expressed by anti-CD3-activated Jurkat cells.
Data set [8] addresses soluble Fas L (recombinant FasL).
The target in data set [9] is hFasLigand (Flag-tagged) (human) (UniProt P48023). Put plainly: competition ELISA: mrecFas 100 ng adsorbed, hFasLigand-Flag 30 ng, FLINT 5 ng; signal is FasL bound to Fas.
Data set [10] has the same target. Put plainly: competition ELISA: mrecFas 100 ng adsorbed, hFasLigand-Flag 30 ng, FLINT 10 ng; signal is FasL bound to Fas.
Data set [11] addresses FasL expressed by anti-CD3-activated Jurkat cells. This is another data set of the same source.
For data set [12] the following is noted: mouse, in vivo. The source says:
These animals are also useful in further delineating useful treatment protocols for the conditions set out above. Transgene construction. […] The 5' primer, [NT], a BglII restriction site and the 3' primer, [NT], contained an SpeI restriction enzyme site. These were used to amplify the entire FLINT and FLAG coding region. The amplified 1.1 kb fragment was ligated into the multiple cloning site of plasmid […]2 generating plasmid […] (6.7 kb). See Fox et al, Eur. J. Pharmacol. 308:195 (1996). The FLINT gene fragment was excised from […] by BglII and SpeI digestion and gel-purified. This fragment then was blunted with Klenow enzyme and ligated into the Klenow-blunted MluI site of plasmid pLIV.7, provided by John Taylor of the J. David Gladstone Institutes. See Fan et al., Proc. Nat'l Acad. Sci. 91:8724 (1994). Resultant plasmid […] also contains the apo E gene promoter/5' flanking region and an hepatic enhancer sequences called the “hepatic control region” (HCR). […] Broad tissue expression was detected in line 6494 progeny by Northern blot, RT-PCR (TaqMan), Western blot and immunohistochemical analysis and was highest in the liver and kidney. High levels of FLINT protein were detected in the circulation of line 6494 mice by ELISA assay; founder level=490 ng/ml; progeny levels ranged from 285-1360 ng/ml (n=6). No endogenous FLINT was detected by these analyses.

Data set [13] relates to Jurkat cells. The data set can be described thus: Recombinant FasL induced Jurkat cell apoptosis (Annexin V/PI, FACS). It counts as cell-based. The note with it: Jurkat + inducer alone 200 ng/ml, overnight. The protocol: One milliliter of 1×10^6 cell/ml was added into each well of 24 well tissue culture plate and treated with following reagents: soluble Fas L (200 ng), Fas L plus 1 ug mFLINT, Fas L plus 1 ug OPG2-Fc, Trail (200 ng), Trail plus 1 ug mFLINT. Cells were incubated overnight at 37° C. and then stained with Annexin V and PI.

Data set [14] deals with bone marrow cells. The data set can be described thus: Viable cell count of bone marrow cells from 5-FU treated mice after cytokine expansion. In kind it is cell-based, mouse. The note with it: FIG. 10; 3 days with SCF and IL-6; mFLINT 1 ug/ml, anti-FasL 1 ug/ml, FasL 0.15 ug/ml; control 3,300. The text has this: Following a 3 day in vitro expansion period with cytokines, viable cells are counted and used to set up a CFU assay. If mFLINT or anti-FasL antibody protects progenitor cells from apoptosis, one would expect a greater number of colonies in these groups for the CFU assay. […] The values were: control cells: 3,300; FasL-treated cells: 3,000; anti-FasL-treated cells: 4,200; mFLINT-treated cells: 4,900.

Data set [15] deals with mrecFas. Put plainly: Baseline Fas-FasLigand interaction ELISA. It counts as binding. The note with it: mrecFas 100 ng adsorbed. The protocol: First a baseline experiment was done for the Fas-FasLigand interaction in vitro. Unless otherwise indicated, all washing steps use TBST (Tris Buffer Saline with Tween 20 from SIGMA) and were done 3 to 6 times.
mrecFas (100 ng) was adsorbed on to ELISA plate. Then the plate was is blocked by TBST plus 0.1% Gelatine. […] After washing the plate 6 times, anti-mouse-Abs-HRP (3000 dilution, Bio-Rad) was added to the wells. After washings three times, visualization enzymatic reaction using ABTS as a substrate was performed. Unless otherwise noted, an ELISA reader commercialized by Molecular Devices Corp. (Menlo Park, Calif.) was used.

Chain of murine FasL of anti-CD3-stimulated mouse T cell hybridoma cells (LTT cells) (mouse) (P41047 whole entry): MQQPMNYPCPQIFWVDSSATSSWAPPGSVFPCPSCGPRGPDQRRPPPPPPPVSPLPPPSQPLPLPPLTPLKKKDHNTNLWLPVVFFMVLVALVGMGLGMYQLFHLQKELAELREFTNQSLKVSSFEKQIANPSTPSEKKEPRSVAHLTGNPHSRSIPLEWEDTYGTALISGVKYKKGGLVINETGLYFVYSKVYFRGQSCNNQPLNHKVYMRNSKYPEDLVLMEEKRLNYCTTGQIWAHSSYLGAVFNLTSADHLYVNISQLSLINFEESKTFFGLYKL

B1: solubleFas (sFas)(FasFc, mouse) (Fc fusion)
chain: QGTNSISESLKLRRRVRETDKNCSEGLYQGGPFCCQPCQPGKKKVEDCKMNGGTPTCAPCTEGKEYMDKNHYADKCRRCTLCDEEHGLEVETNCTLTQNTKCKCKPDFYCDSPGCEHCVRCASCEHGTLEPCTATSNTNCRKQSPRNR
Regarding B1, the SFas % Annexin V Positive in data set [1] was determined as 56.7%. For the same molecule, in data set [2], the MTS cytotoxicity assay, absorbance at 490 nm (absorbance at 490 nm) came to 1.46.

B2: mFLINT (mature human FLINT, non-Flagged, made according to Examples 8 and 9) (receptor)
chain: VAETPTYPWRDAETGERLVCAQCPPGTFVQRPCRRDSPTTCGPCPPRHYTQFWNYLERCRYCNVLCGEREEEARACHATHNRACRCRTGFFAHAGFCLEHASCPPGAGVIAPGTPSQNTQCQPCPPGTFSASSSSSEQCQPHRNCTALGLALNVPGSSSHDTLCTSCTGFPLSTRVPGAEECERAVIDFVAFQDISIKRLQRLLQALEAPEGWGPTPRAGRAALQLKLRRRLTELLGAQDGALLVRLLQALRVARMPGLERSVRERFLPVH
modifications: glycosylated
As to B2, the OD, 405 nM is 0.18 OD, 405 nM in data set [3]; 0.28 OD, 405 nM in [4]; 0.06 OD, 405 nM in data set [5]; 0.36 OD, 405 nM in [6]; 0.36 OD, 405 nM in data set [9]; 0.36 OD, 405 nM in [10]. In data set [7], this molecule displayed an apoptosis of Jurkat cells, positive staining with Annexin V (FACS) of 18.7. Also, in [8], the apoptosis of Jurkat cells, Annexin V and PI (FACS) was 3.32. For the same molecule, the apoptosis of Jurkat cells (dose series of mFLINT) in data set [11] was 14.7.

B3: FLINT protein: FLINT-FLAG expressed from Apo E promoter/HCR transgene in line 6494 transgenic mice (protein)
chain: B2 chain
modifications: glycosylated
notes: FLINT-FLAG expressed from Apo E promoter/HCR transgene in line 6494 transgenic mice
With B3, in [12], the histopathologic findings entry is recorded as “No significant histopathologic findings” and the observable abnormalities result is recorded as “no observable abnormalities”.

B4: FasL: Fas ligand; hFasLigand (Flag-tagged) in ELISA, soluble Fas L in cell assays (protein)
chain: QLFHLQKELAELRESTSQMHTASSLEKQIGHPSPPPEKKELRKVAHLTGKSNSRSMPLEWEDTYGIVLLSGVKYKKGGLVINETGLYFVYSKVYFRGQSCNNLPLSHKVYMRNSKYPQDLVMMEGKMMSYCTTGQMWARSSYLGAVFNLTSADHLYVNVSELSLVNFEESQTFFGLYKL
For B4, in data set [13], the “Cell apoptosis (Annexin V and PI, FACS)” value is recorded as 67.39. For the same molecule, in data set [14], the “bone marrow cell count” value is given as 3,000 ×1000. For the same molecule, the “OD, 405 nM” value was “.1” in data set [15] (FasL 1 ng); “.2” in data set [15] (FasL 5 ng); “.3” in [15] (FasL 10 ng); “.7” in data set [15] (FasL 50 ng); 1.2 in data set [15] (FasL 100 ng); 1.6 in [15] (FasL 500 ng).

Source of the values: patent publication US20040167074A1, “Therapeutic applications of mFLINT polypeptides” (priority 1998, published 2004).
